According to IntAct's records for PubMed 17496148:

B1: Anti-sigma-E factor RseA (Escherichia coli (strain K12)), P0AFX7 (parent)
chain: MQKEQLSALMDGETLDSELLNELAHNPEMQKTWESYHLIRDSMRGDTPEVLHFDISSRVMAAIEEEPVRQPATLIPEAQPAPHQWQKMPFWQKVRPWAAQLTQMGVAACVSLAVIVGVQHYNGQSETSQQPETPVFNTLPMMGKASPVSLGVPSEATANNGQQQQVQEQRRRINAMLQDYELQRRLHSEQLQFEQAQTQQAAVQVPGIQTLGTQSQ
partner: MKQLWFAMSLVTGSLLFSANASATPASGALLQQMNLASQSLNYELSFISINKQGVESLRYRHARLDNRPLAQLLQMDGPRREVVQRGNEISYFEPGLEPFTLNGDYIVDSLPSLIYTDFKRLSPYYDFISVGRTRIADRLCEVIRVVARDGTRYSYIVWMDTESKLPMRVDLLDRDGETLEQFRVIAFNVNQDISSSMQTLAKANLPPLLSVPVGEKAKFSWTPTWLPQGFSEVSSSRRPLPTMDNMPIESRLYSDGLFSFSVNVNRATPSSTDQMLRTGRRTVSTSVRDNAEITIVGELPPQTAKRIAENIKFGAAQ

Variants of: B1
Conditions: with rseb_ecoli rseB

Variant | effect of a mutation on the interaction
R184A;R185A | disrupting interaction strength
R171E;R172E | disrupting interaction strength
R171A;R172A | disrupting interaction strength
R184E;R185E | disrupting interaction strength
